pKd: −log10 of the molar value.
The substances below were run against T1, MtbCspB (cold shock protein CspB) (Mycobacterium tuberculosis H37Rv) (UniProt I6WZM9) (assay: SPR). Conditions: […] (or 250 mM) NaCl, 10 mM MgCl2, 0.05% Tween-20, temperature not stated.
T1 sequence: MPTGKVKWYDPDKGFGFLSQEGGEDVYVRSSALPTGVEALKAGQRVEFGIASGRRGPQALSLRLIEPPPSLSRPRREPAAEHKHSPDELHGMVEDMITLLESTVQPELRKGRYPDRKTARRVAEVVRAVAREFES
Work on GUGGUCAGUCGAGUGGUUUUUU [oligoU RNA] yielded a pKd of 7.73. MTS0997 sRNA (Mcr11, ncRv1264Ac) was tested, and the pKd was 9.95. Substance MTS1338 sRNA (DrrS, ncRv11733) has a pKd of 9.53.

Reference: publication PMC12840758
